Test results: patent EP4541814A1
Substitutions are numbered along the chain they refer to. One block for each binder: values may come before it.

Assays:
[1] = biological target: epidermal growth factor receptor (EGFR), Example 4A analyte (UniProt P00533); assay: SPR (Biacore 8K+), fusion protein amine-coupled to CM5, EGFR 200 nM, report point late binding
[2] = biological target: EGFR (SinoBiological, 10001-H08H) (UniProt P00533); assay: SPR (Biacore 8K+), fusion protein amine-coupled to CM5, EGFR 200 nM
[3] = biological target: trastuzumab-GFP (prepared in-house); assay: SPR (Biacore 8K+), fusion protein amine-coupled to CM5, Fc block 2 uM, then trastuzumab-GFP 1 uM

trastuzumab-eGFP response in analyte binding late (1 µM, RU) [3]: 4300 RU
B3: Candidate 4B-5: vh60 fusion protein (SEQ ID NO:172) (VHH)
VHH: QVQLQESGGGLVQPGGSLRLSCAASGRTSINPYMAWFRQAPGKQREFVAAISSGGVYTYYTDSVKGRFTISRDNAKTTVYLQMNSLKPEDTAVYYCAADFRRGGNWNVDPFRYDYQYWGQGTQVTVSS

trastuzumab-eGFP response in analyte binding late (1 µM, RU) [3]: 3910 RU
B4: Candidate 4B-6: vh113 fusion protein (SEQ ID NO:173) (VHH)
VHH: B3 VHH with E6Q, L11S, P14A, A23T, A24I, A40R, Q44E, T61A, T77N, Q116D

The next lines start with the binder.

B1: Candidate 4A-5: vh167 fusion protein (SEQ ID NO:169) (VHH)
VHH: QVQLQQSGGGSVQAGGSLRLSCTISGRTFSSYAMGWFRQRPGKEREFVAAINWSSGSTYYADSVKGRFTISRDNAKNTVYLQMNSLKPEDTAVYYCAAGYQINSGNYNFKDYEYDYWGQGTQVTVSS
Binding capacity EGFR (200 nM) (RU) [1]: 2350 RU

B2: Candidate 4B-4: vh167 fusion protein (SEQ ID NO:175) (VHH)
VHH: B1 VHH
EGFR response in analyte binding late (200 nM, RU) [2]: 1900 RU
